{"source": "patent US20100150950A1", "about": "“HUMAN ANTIBODIES THAT BIND CD70 AND USES THEREOF” (Medarex, Inc., priority 2006, published 2010)", "key": {"[1]": {"test_system": "peptide specific CD8+ T cells", "experiment": "CMV peptide specific CD8+ T cell expansion in PBMC", "format": "cell-based, human", "experimental": "Human MHC class I haplotype B*3501+ peripheral blood mononuclear cells (PBMC) pre-screened for cytomegalovirus (CMV) specific T cell responses (Astarte, Inc) were cultured in the presence of 25 ng/ml of B*3501 binding CMV peptide […] (SEQ ID NO:90) (ProImmune, Oxford, UK) and serial dilutions of the HuMAb 2H5 for 11 days. Cultures were analyzed by flow cytometry for CD8+ T cells by PE conjugated anti-CD8 staining (clone RPA-T8, BD Biosciences), for peptide specific CD8+ T cells by APC labeled peptide-MHC Class I pentameric oligomer staining (F114-4B; ProImmunc) and for viability by lack of propidium iodide staining. An isotype control antibody was used as a negative control. […] CD8+ T cell expansion (FIG. 37A). […] Data is representative of one additional experiment performed with the same donor.\nHuman MHC class I haplotype B*3501+PBMC pre-screened for cytomegalovirus (CMV) specific T cell responses (Astarte, Inc) were cultured in presence of 25 ng/ml of B*3501 binding CMV peptide […] (ProImmune) (SEQ ID NO:90) and 20 μgs/ml of the HuMAb 2H5 in the presence or absence of serial dilutions of an anti-human CD16 (FcRγIII) functional blocking Ab (clone 3G8; BD Biosciences) for 11 days and were then analyzed by flow cytometry for peptide specific CD8+ cell numbers as described above. […] Approximately 1000-fold more 3G8 was required to reverse 2H5 NF mediated inhibition compared to 2H5."}, "[2]": {"test_system": "CD70 costimulation of human CD3+ T cells", "experiment": "CD70 co-stimulated human T cell proliferation and IFN-γ secretion", "format": "cell-based", "conditions": "CHO-S/mCD32/CD70 cells + anti-hCD3, 3 days", "experimental": "In this experiment, the HuMAb anti-CD70 antibody 2H5 was tested for inhibition of inflammatory responses. CHO-S cells stably transfected with mouse CD32 (CHO-S/mCD32 cells) were transiently transfected with a full length human CD70 construct (CHO-S/mCD32/CD70 cells). Surface expression was confirmed by flow cytometry using 2A5 and PE conjugated anti-human IgG secondary Ab (data not shown). RosetteSep® Human T Cell Enrichment Kit (Cat# 15061; StemCell Technologies Inc) purified human peripheral blood CD3^+ T cells were stimulated in vitro at 1×10^6/well with 1×10^5 CHO-S/mCD32 or CHO-S/mCD32/CD70 cells/well, 1μg/ml anti-hCD3 (clone OKT3; BD Bioscience) and serial dilutions of either the HuMAb 2H5 or non-fucosylated 2H5 (2H5 NF) in triplicate wells of a 96 well plate. After 3 days supernatant aliquots were collected and interferon-gamma (INF-γ) secretion was measured by a quantitative ELISA kit (BD Biosciences). The plates were pulsed with 1 μCi/ml of ^3H-thymidine, incubated for 8 hours, cells were harvested and ^3H-thymidine incorporation was read on a Trilux® 1450 Microbeta Counter (Wallac, Inc.). An IgG1 isotype control antibody was used as a negative control. […] Data also show 2H5 inhibition is specific to CD70 costimulation as 2H5 had no effect on anti-CD3^+ CHO-S/mCD32 mediated proliferation. […]"}, "MEC-1 cells": {"test_system": "MEC-1 cells", "experiment": "ADCC fluorescence cytotoxicity assay, MEC-1", "format": "cell-based, human", "conditions": "target to effector ratio 1:50", "experimental": "In this example, a defucosylated and non-defucosylated anti-CD70 monoclonal antibody was tested for the ability to kill CD70+cells in the presence of effector cells via antibody dependent cellular cytotoxicity (ADCC) in a fluorescence cytotoxicity assay\nHuman Anti-CD70 monoclonal antibody 2H5 was defucosylated as described above. Human effector cells were prepared from whole blood as follows. Human peripheral blood mononuclear cells were purified from heparinized whole blood by standard Ficoll-paque separation. The cells were resuspended in RPMI1640 media containing 10% FBS (culture media) and 200 U/ml of human IL-2 and incubated overnight at 37° C. The following day, the cells were collected and washed once in culture media and resuspended at 2×10^7 cells/ml. […]\nThe CD70+ cell lines ARH-77 (human B lymphoblast leukemia; ATCC Accession No. CRL-1621), MEC-1 (human chronic B cell leukemia; DSMZ Accession No. ACC 497), SU-DHL-6 (human B cell lymphoma, DSMZ Accession No. Acc572), IM-9 (human B lymphoblast; ATCC Accession No. CCL-159) and HuT 78 (human cutaneous lymphocyte lymphoma; ATCC Accession No. TIB-161), were tested for antibody specific ADCC to the defucosylated and non-defucosylated human anti-CD70 monoclonal antibody 2H5 using the Delfia fluorescence emission analysis as follows. […]"}}}
{"molecule": "2H5 NF: 2H5 HuMAb lacking fucosyl residues, expressed in CHO cell line Ms704-PF (antibody, V domains shown) VH: QVQLVESGGGVVQPGRSLRLSCAASGFTFSSYIMHWVRQAPGKGLEWVAVISYDGRNKYYADSVKGRFTISRDNSKNTLYLQMNSLRAEDTAVYYCARDTDGYDFDYWGQGTLVTVSS VL: EIVLTQSPATLSLSPGERATLSCRASQSVSSYLAWYQQKPGQAPRLLIYDASNRATGIPARFSGSGSGTDFTLTISSLEPEDFAVYYCQQRTNWPLTFGGGTKVEIK", "values": [{"measurement": "peptide specific CD8+ T cell expansion", "setting": "[1]; 25 ng/ml CMV peptide, 11 days", "result": "completely inhibited"}, {"measurement": "total CD8+ cell numbers", "setting": "[1]; 25 ng/ml CMV peptide, 11 days", "result": "no significant reduction"}, {"measurement": "3G8 required to reverse inhibition compared to 2H5", "setting": "[1]; antibody 20 μgs/ml", "result": "Approximately 1000 fold"}, {"measurement": "effect of anti-CD16 Ab 3G8 on inhibition of peptide specific CD8+ T cell expansion", "setting": "[1]; antibody 20 μgs/ml, serial dilutions of 3G8", "result": "Dose dependent reversal"}, {"measurement": "CD70 co-stimulated INF-γ secretion", "setting": "[2]", "result": "completely inhibited"}, {"measurement": "CD70 co-stimulated proliferation", "setting": "[2]", "result": "completely inhibited"}, {"measurement": "ADCC, % specific lysis of MEC-1", "setting": "MEC-1 cells", "result": "increased percentage of specific lysis"}]}
